Test results: the supplement of paper PMC12042874
± gives the uncertainty stated by the source.

assay: amyloid nucleation score (Sup35N fusion, yeast selection) (log enrichment); library NNK2; higher = more nucleation; inactive = no reads after selection
How it was run: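 Sup35N fusions to peptides of 20 random codons were expressed in psi-negative yeast, induced 24 hours with 100 μM copper sulfate, and grown 7 days at 30°C on medium lacking adenine and uracil. Input and output plasmid inserts were sequenced by Illumina. The nucleation score is the DiMSum log enrichment of output over input reads, centred on the mode score of non-aggregating sequences. Sequences with under 100 input reads were excluded.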

Substance | amyloid nucleation score
MNFWMILVKSETYFNDRRPY | 7.152 ± 0.061
MNGCTTANGIVDTRSNAFTC | 1.87 ± 0.097
MNGIFVNLKSKIRTFCRSVY | 2.67 ± 0.11
MNIAVIHNMVQGSKAPDYHF | 4.67 ± 0.075
MNIVVYVHLGVSAQVSMAHR | 8.407 ± 0.041
MNVGCIDQFYCMWRCNIFWP | 7.678 ± 0.055
MNVGTFSLRFLSFDLL | -0.054 ± 1.1
MNWTSVHLDDWSRILIHTYC | inactive
MPSRYMIVMFNLTLPRRGVG | -0.226 ± 0.55
MQSINVNNVKTSTRPFFVNR | inactive
MQTICSN | -1.13 ± 1
MRCAPLMHHLARPASFRI | 2.08 ± 0.096
MRCKRYECSGDSWWGYSFAK | 0.131 ± 0.27
MRCNFADSAYRMISMTV | 0.412 ± 0.55
MRMVA | -0.723 ± 0.49
MRNPYFRHCRFITRRVVFID | inactive
MRPMIFPCYAMSSVSMLTSR | 0.72 ± 0.27
MRTIGGD | 0.348 ± 0.38
MRWRMCIIFNLVISY | 0.218 ± 1.1
MRYEFVLFLRFRGSDTKGRD | -0.124 ± 0.33
MRYRIICNFCHDVRKESLLK | -0.246 ± 0.8
MSAPRMEQSWEHQQQRDHTC | 0.661 ± 0.33
MSFNQLIMFETRSSTPYRWR | 5.71 ± 0.078
MSGSDNLILYSSV | -0.212 ± 0.45
MSMLMRVRCEISVTTML | 4.498 ± 0.031
MSNRVCCNYVGSHVRYCVSK | 4.913 ± 0.048

Substance | amyloid nucleation score
MSQFGHVCSRAYFLRDDQAN | inactive
MSRKFMGVFCTSSRGSLPRG | 0.653 ± 0.47
MSSIDFSFCTSSLRTYSIVR | 0.155 ± 1.1
MSTIEYSDGVEGRHILCLIA | 1.2 ± 0.35
MSVKSEAGRRSLRMNSKTSR | 0.078 ± 0.22
MSVLRSG | 0.526 ± 0.66
MSYVLMVFASPIMYVTHPIA | 1.89 ± 0.2
MTFAT | -1.51 ± 1.1
MTIDCFTFRDQGVYGTLMLK | 3.33 ± 0.043
MTIQSYGVILLLISVYWLSF | 0.584 ± 0.66
MTIVCRWR | 3.04 ± 0.16
MTIVVSDCTSVSDVFIGLGN | 2.29 ± 0.076
MTMGEKTLCPWNHSDLAPSR | 0.966 ± 0.49
MTNMT | 1.18 ± 0.61
MTRYDDRFVQNRSSWLDNFD | -0.909 ± 0.48
MTSFGYHMNLCH | 0.072 ± 1.1
MTWGSISNNLVTRTTPTYIC | 0.178 ± 0.56
MVAGDKRDGG | 2.39 ± 0.07
MVGNWDSV | -0.011 ± 0.49
MVHLRGIDVMSILDSYCESG | 0.544 ± 0.52
MVHTKYPLWSNSRVLWDSVT | 0.397 ± 0.64
MVMANHRSYRY | 7.663 ± 0.026
MVQPS | 0.462 ± 0.5
MVRDIEFTLKGRTMG | -0.032 ± 1.1
MVSVKSCYYVSVSVLSRFHF | 0.065 ± 0.36
MVWSSRDS | -0.548 ± 0.54

Substance | amyloid nucleation score
MVYGLDFIGASL | -0.016 ± 0.5
MWQSMLSAVGSVNVMSQLGT | 1.53 ± 0.33
MWRVWECGGRRDNLVRCPSR | 0.774 ± 0.51
MWWYSFPLGLLWVFNS | inactive
MYCLHCTTSCWSRLRLVNNF | 2.98 ± 0.16
MYIGVL | -0.065 ± 0.45
MYNRSRLSFA | -0.666 ± 1
MYSLR | inactive
MYTYLINVNVSDAFTLYGLE | 4.43 ± 0.056
MYVDLWFGTYRNS | 0.532 ± 0.54
MYVFMVSFYMGFCKYQNSVI | inactive
NACYRFILISSMVRLSFSVW | 0.389 ± 0.8
NAERSESLYNYKMAGPYGEG | -0.661 ± 1.1
NALGRMCGSWRLVIHISDWW | 0.236 ± 0.23
NASIQR | 0.564 ± 0.36
NATLNNVERFRAFRGTFLDY | inactive
NCEVFNGDALWRSFTGRYLM | 0.042 ± 1.1
NCLLVLHFG | 6.91 ± 0.073
NCLMLVGNIFWSEESPRLAM | 8.041 ± 0.068
NCNFSLEGHYCTFIKFHWTV | 3.23 ± 0.097
NCRLKLPSP | 3.69 ± 0.05
NCSHGLHLNVFNLVPYKSLI | 4.9 ± 0.096
NCSLCFENGMAYFCILIEGV | 5.645 ± 0.043
NDFFIFSQEYPYKRMFLQLL | -1.35 ± 0.53
NDGAIGIVAPGEHLLVRDVK | -0.573 ± 0.41
NDNKRYIHYPFLMGFTVSYL | -0.401 ± 0.6

Substance | amyloid nucleation score
NEADE | -0.119 ± 0.46
NEIQANNCGPKILKLYQNMR | 0.579 ± 0.8
NFCSMRSKVTCNSDDKFWNH | -1.13 ± 1.1
NFDVNSRWDTRTCFLSWLKQ | inactive
NFGADVDRFNRVEGSSDFHG | 0.285 ± 0.54
NFHLSVRSDSYVL | 3.14 ± 0.12
NFKYHCRYWFFVFAKFKFHL | -1.42 ± 0.75
NFMYRSSMFMHL | 4.74 ± 0.074
NFPMSSFKEEIWLRTRVPLC | 0.691 ± 0.66
NGGINNSWWGLIFLNLWPTI | -0.592 ± 0.79
NGLESYDFTQLY | -0.667 ± 0.64
NGLSSSTWGPWMYCWCVNMV | 8.751 ± 0.057
NGQFGTSHGMVGTGVSLRG | -0.012 ± 0.65
NGSYGSYMHFPEPIMSIFMY | inactive
NGTFSCGERVIEINDDSLSD | 0.486 ± 0.8
NGTINALFSDEAGWSSCGYL | 0.2 ± 0.34
NGVCQNCR | inactive
NGVRLNLVNFSFGLDVMPFR | 7.642 ± 0.071
NHITMFDRVSYYVKLKHYVA | 0.452 ± 0.37
NHKAIYLRPSSTNPEILSRA | 1.15 ± 0.47
NHRETVFVVIASRSWHARFG | -0.19 ± 1
NHVCRIVTMFGVPSRSN | inactive
NIAKSEILRIWNWW | inactive
NIDICDVWFMNCLYIILVAQ | 5.192 ± 0.031
NIDSELSCDYD | -0.784 ± 0.76
NIFEYPGYRRYVCCVGWV | 4.551 ± 0.044

Substance | amyloid nucleation score
NIKSYVGYRNHFRVSLV | inactive
NILAMKLFVNKFHVIFDEFL | 0.097 ± 1.1
NILTRYS | -0.013 ± 0.31
NIRQVIKGVSCLHIMWEKWR | -0.304 ± 0.48
NIRSYPVNYKHHFT | 0.19 ± 0.27
NIRVNDCVRHPSGDVQARVS | -0.014 ± 0.35
NITLYFKRSLDLFGEPMWTQ | 1.53 ± 0.16
NIVKGFRCLCVNLTDFRETR | 4.09 ± 0.12
NKCEIKLRKWQSSP | -0.337 ± 0.34
NKDRGGRYSICRNYANPFVA | 0.034 ± 0.29
NKLTV | -0.381 ± 0.79
NKRELNIVV | 0.701 ± 0.43
NKSVQARDPTV | inactive
NKVSEFYDGVHFC | -0.235 ± 1.1
NLAFTNALVLLWNSVYLKDE | 8.274 ± 0.058
NLASRALIKLFH | -0.538 ± 0.48
NLCRQVACTLLSLPSDTPRF | 8.842 ± 0.03
NLGDVSYTSSFG | 1.31 ± 0.43
NLKIMLIRTIVYHDWSTMHL | 7.161 ± 0.061
NLMGFCYVSAEWVFGGRPGY | 1.97 ± 0.14
NLQLTFGS | -0.202 ± 0.21
NLRMVG | 0.182 ± 1.1
NLRSYIRGSLFGFCSRLWEN | 3.09 ± 0.08
